Assay results as given in patent US20140274782A1, “AFFINITY REAGENTS AND METHODS FOR DETECTION, PURIFICATION, AND PROTEOMIC ANALYSIS OF METHYLATED PROTEINS” (The Board of Trustees of the Leland Stanford Junior …, priority 2013, published 2014).

Tests used:
3×MBT domain of L3MBTL1 = experiment: Triple SILAC pull-down, 3xMBT/3xMBTD355N ratio (cytoplasmic, nuclear and chromatin fractions of 293T cells); type: binding, human; settings: for 3xMBT/D355N UNC Heavy: experiment with UNC0638 in heavy SILAC media; for 3xMBT/D355N UNC Light: experiment with UNC0638 in light SILAC media;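 as to all read-outs here: proteins quantified with MaxQuant, requiring at least two unique peptides and quantification in both label directions, normalized to the mean of proteins from a digested loading control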
G9a and GLP = biological target: T1, G9a and GLP (Homo sapiens, UniProt Q96KQ7+Q9H9B1); experiment: Triple SILAC pull-down after UNC0638 treatment of 293T cells, DMSO/UNC0638 ratio of protein captured by 3×MBT; type: cell-based; set-up: cells were treated for 24 hours with UNC0638 at 2.5 μM or DMSO vehicle control; endogenous in cells; host or cells: HEK 293T; settings: for Relative to UNC0638 UNC Heavy: UNC0638 in heavy SILAC media; for Relative to UNC0638 UNC Light: UNC0638 in light SILAC media; for Relative to UNC0638 Average: average of UNC Light and UNC Heavy experiments;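 as to all read-outs here: mass spectrometry (Q-Exactive) SILAC quantitation, DMSO/UNC0638 ratio computed after subtracting 3×MBTD355N mutant pull-down background, only proteins with at least twofold 3×MBT over mutant signal considered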
T1 sequence (Q96KQ7 2-1210 limits assumed): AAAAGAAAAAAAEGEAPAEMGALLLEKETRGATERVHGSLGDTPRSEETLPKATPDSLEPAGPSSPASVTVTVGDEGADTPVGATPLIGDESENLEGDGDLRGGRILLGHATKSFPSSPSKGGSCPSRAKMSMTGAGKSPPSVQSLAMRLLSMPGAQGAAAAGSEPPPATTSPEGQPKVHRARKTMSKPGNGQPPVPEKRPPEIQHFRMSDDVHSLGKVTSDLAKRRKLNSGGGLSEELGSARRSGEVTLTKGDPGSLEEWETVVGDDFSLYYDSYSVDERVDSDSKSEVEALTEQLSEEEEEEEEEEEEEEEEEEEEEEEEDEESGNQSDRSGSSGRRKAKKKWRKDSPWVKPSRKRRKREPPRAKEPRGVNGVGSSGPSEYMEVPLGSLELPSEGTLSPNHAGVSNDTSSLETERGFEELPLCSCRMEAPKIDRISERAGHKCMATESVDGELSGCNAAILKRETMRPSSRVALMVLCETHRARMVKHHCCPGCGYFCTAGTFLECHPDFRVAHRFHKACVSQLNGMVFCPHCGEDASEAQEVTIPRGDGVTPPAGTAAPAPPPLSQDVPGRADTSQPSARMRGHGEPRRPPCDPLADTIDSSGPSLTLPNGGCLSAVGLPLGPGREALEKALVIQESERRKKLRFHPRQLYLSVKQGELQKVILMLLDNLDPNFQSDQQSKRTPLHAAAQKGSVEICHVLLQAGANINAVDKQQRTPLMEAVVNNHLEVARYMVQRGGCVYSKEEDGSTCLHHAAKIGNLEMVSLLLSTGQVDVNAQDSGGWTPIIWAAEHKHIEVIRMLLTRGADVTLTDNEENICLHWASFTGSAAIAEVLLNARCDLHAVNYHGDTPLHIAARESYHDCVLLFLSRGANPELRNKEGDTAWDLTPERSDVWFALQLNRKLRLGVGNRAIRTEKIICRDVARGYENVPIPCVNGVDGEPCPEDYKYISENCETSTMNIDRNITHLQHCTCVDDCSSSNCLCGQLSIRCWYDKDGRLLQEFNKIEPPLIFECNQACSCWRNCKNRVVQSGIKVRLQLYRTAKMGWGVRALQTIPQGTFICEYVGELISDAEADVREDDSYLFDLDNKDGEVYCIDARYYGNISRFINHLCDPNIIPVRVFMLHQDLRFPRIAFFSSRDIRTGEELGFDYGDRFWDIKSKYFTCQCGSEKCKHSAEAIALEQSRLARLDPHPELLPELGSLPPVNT
T1 sequence (Q9H9B1 2-1298 limits assumed): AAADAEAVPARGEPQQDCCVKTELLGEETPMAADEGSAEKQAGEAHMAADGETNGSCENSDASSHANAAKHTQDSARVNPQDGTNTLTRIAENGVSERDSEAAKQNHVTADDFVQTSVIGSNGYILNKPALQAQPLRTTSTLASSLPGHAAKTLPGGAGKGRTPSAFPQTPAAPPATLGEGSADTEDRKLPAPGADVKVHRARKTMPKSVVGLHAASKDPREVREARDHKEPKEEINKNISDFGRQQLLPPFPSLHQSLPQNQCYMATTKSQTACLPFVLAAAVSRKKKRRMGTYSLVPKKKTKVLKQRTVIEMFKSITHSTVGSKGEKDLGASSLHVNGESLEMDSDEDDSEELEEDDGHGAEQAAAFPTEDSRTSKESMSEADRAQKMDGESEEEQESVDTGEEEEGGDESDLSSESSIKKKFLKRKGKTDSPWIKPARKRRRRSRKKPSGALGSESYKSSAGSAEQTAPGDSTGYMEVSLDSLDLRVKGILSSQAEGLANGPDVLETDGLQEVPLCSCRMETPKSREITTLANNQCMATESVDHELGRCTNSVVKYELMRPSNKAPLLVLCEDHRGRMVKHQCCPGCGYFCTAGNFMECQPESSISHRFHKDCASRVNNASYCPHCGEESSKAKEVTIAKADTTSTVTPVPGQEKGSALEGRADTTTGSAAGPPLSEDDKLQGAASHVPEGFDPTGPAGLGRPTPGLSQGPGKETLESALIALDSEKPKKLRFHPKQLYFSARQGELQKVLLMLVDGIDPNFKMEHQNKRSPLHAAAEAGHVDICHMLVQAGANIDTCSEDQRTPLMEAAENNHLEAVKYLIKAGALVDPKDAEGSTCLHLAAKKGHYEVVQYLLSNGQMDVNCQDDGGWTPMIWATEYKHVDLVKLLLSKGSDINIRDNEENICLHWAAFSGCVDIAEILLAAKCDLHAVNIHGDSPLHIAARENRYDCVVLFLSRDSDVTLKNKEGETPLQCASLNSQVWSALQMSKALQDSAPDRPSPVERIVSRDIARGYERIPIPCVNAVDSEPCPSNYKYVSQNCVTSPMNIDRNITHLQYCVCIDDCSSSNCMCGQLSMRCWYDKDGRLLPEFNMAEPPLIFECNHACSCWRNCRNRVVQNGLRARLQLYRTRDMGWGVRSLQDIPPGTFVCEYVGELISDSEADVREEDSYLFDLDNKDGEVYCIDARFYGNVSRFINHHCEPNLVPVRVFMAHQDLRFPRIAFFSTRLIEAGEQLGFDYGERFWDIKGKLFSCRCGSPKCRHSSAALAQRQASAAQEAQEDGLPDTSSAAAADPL

[1] = SILAC ratio 3xMBT vs 3xMBTD355N pull-down, 293T cells, all values in log base 2
[2] = SILAC ratio DMSO relative to UNC0638, pull-down with 3xMBT, all values in log base 2
[3] = SILAC ratio, pull-down 3xMBT vs 3xMBTD355N
[4] = SILAC ratio DMSO/UNC0638 of protein pulled down with 3xMBT

B1: ZRANB2 (protein, UniProt O95218 1-330, looked up)
Zinc finger Ran-binding …: MSTKNFRVSDGDWICPDKKCGNVNFARRTSCNRCGREKTTEAKMMKAGGTEIGKTLAEKSRGLFSANDWQCKTCSNVNWARRSECNMCNTPKYAKLEERTGYGGGFNERENVEYIEREESDGEYDEFGRKKKKYRGKAVGPASILKEVEDKESEGEEEDEDEDLSKYKLDEDEDEDDADLSKYNLDASEEEDSNKKKSNRRSRSKSRSSHSRSSSRSSSPSSSRSRSRSRSRSSSSSQSRSRSSSRERSRSRGSKSRSSSRSHRGSSSPRKRSYSSSSSSPERNRKRSRSRSSSSGDRKKRRTRSRSPERRHRSSSGSSHSGSRSSSKKK
B1 was tested, and the “3xMBT/D355N UNC Heavy” value (3×MBT domain of L3MBTL1; [1]) was 0.71 log base 2, the “3xMBT/D355N UNC Light” value (3×MBT domain of L3MBTL1; [1]) was 2.59 log base 2 and the “Relative to UNC0638 UNC Heavy” value (G9a and GLP; [2]) was −0.09 log base 2. For the same molecule, the “Relative to UNC0638 UNC Light” value (G9a and GLP; [2]) was −0.02 log base 2 and the “Relative to UNC0638 Average” value (G9a and GLP; all values in log base 2) was −0.06 log base 2.

B2: CYFIP1 (protein, UniProt Q7L576 1-1253, looked up)
Cytoplasmic FMR1-interacting …: MAAQVTLEDALSNVDLLEELPLPDQQPCIEPPPSSLLYQPNFNTNFEDRNAFVTGIARYIEQATVHSSMNEMLEEGQEYAVMLYTWRSCSRAIPQVKCNEQPNRVEIYEKTVEVLEPEVTKLMNFMYFQRNAIERFCGEVRRLCHAERRKDFVSEAYLITLGKFINMFAVLDELKNMKCSVKNDHSAYKRAAQFLRKMADPQSIQESQNLSMFLANHNKITQSLQQQLEVISGYEELLADIVNLCVDYYENRMYLTPSEKHMLLKVMGFGLYLMDGSVSNIYKLDAKKRINLSKIDKYFKQLQVVPLFGDMQIELARYIKTSAHYEENKSRWTCTSSGSSPQYNICEQMIQIREDHMRFISELARYSNSEVVTGSGRQEAQKTDAEYRKLFDLALQGLQLLSQWSAHVMEVYSWKLVHPTDKYSNKDCPDSAEEYERATRYNYTSEEKFALVEVIAMIKGLQVLMGRMESVFNHAIRHTVYAALQDFSQVTLREPLRQAIKKKKNVIQSVLQAIRKTVCDWETGHEPFNDPALRGEKDPKSGFDIKVPRRAVGPSSTQLYMVRTMLESLIADKSGSKKTLRSSLEGPTILDIEKFHRESFFYTHLINFSETLQQCCDLSQLWFREFFLELTMGRRIQFPIEMSMPWILTDHILETKEASMMEYVLYSLDLYNDSAHYALTRFNKQFLYDEIEAEVNLCFDQFVYKLADQIFAYYKVMAGSLLLDKRLRSECKNQGATIHLPPSNRYETLLKQRHVQLLGRSIDLNRLITQRVSAAMYKSLELAIGRFESEDLTSIVELDGLLEINRMTHKLLSRYLTLDGFDAMFREANHNVSAPYGRITLHVFWELNYDFLPNYCYNGSTNRFVRTVLPFSQEFQRDKQPNAQPQYLHGSKALNLAYSSIYGSYRNFVGPPHFQVICRLLGYQGIAVVMEELLKVVKSLLQGTILQYVKTLMEVMPKICRLPRHEYGSPGILEFFHHQLKDIVEYAELKTVCFQNLREVGNAILFCLLIEQSLSLEEVCDLLHAAPFQNILPRVHVKEGERLDAKMKRLESKYAPLHLVPLIERLGTPQQIAIAREGDLLTKERLCCGLSMFEVILTRIRSFLDDPIWRGPLPSNGVMHVDECVEFHRLWSAMQFVYCIPVGTHEFTVEQCFGDGLHWAGCMIIVLLGQQRRFAVLDFCYHLLKVQKHDGKDEIIKNVPLKKMVERIRKFQILNDEIITILDKYLKSGDGEGTPVEHVRCFQPPIHQSLASS
With B2 the “3xMBT/D355N UNC Heavy” value (3×MBT domain of L3MBTL1; [3]) was 1.93 log base 2, the “3xMBT/D355N UNC Light” value (3×MBT domain of L3MBTL1; [3]) was 1.58 log base 2 and the “Relative to UNC0638 UNC Heavy” value (G9a and GLP; [4]) was 0.55 log base 2. The “Relative to UNC0638 UNC Light” value (G9a and GLP; [4]) was 0.36 log base 2, the “Relative to UNC0638 Average” value (G9a and GLP) was 0.46 log base 2 and the “Candidate G9a/GLP target” value (G9a and GLP; reduced association with 3xMBT after UNC0638 treatment) was “✓”.

B3: CSTF3 (protein, UniProt Q12996 2-717, looked up)
Cleavage stimulation factor …: SGDGATEQAAEYVPEKVKKAEKKLEENPYDLDAWSILIREAQNQPIDKARKTYERLVAQFPSSGRFWKLYIEAEIKAKNYDKVEKLFQRCLMKVLHIDLWKCYLSYVRETKGKLPSYKEKMAQAYDFALDKIGMEIMSYQIWVDYINFLKGVEAVGSYAENQRITAVRRVYQRGCVNPMINIEQLWRDYNKYEEGINIHLAKKMIEDRSRDYMNARRVAKEYETVMKGLDRNAPSVPPQNTPQEAQQVDMWKKYIQWEKSNPLRTEDQTLITKRVMFAYEQCLLVLGHHPDIWYEAAQYLEQSSKLLAEKGDMNNAKLFSDEAANIYERAISTLLKKNMLLYFAYADYEESRMKYEKVHSIYNRLLAIEDIDPTLVYIQYMKFARRAEGIKSGRMIFKKAREDTRTRHHVYVTAALMEYYCSKDKSVAFKIFELGLKKYGDIPEYVLAYIDYLSHLNEDNNTRVLFERVLTSGSLPPEKSGEIWARFLAFESNIGDLASILKVEKRRFTAFKEEYEGKETALLVDRYKFMDLYPCSASELKALGYKDVSRAKLAAIIPDPVVAPSIVPVLKDEVDRKPEYPKPDTQQMIPFQPRHLAPPGLHPVPGGVFPVPPAAVVLMKLLPPPICFQGPFVQVDELMEIFRRCKIPNTVEEAVRIITGGAPELAVEGNGPVESNAVLTKAVKRPNEDSDEDEEKGAVVPPVHDIYRARQQKRIR
For B3, the “3xMBT/D355N UNC Heavy” value (3×MBT domain of L3MBTL1; [1]) was 1.58 log base 2, the “3xMBT/D355N UNC Light” value (3×MBT domain of L3MBTL1; [1]) was 1.48 log base 2 and the “Relative to UNC0638 UNC Heavy” value (G9a and GLP; [2]) was −0.78 log base 2. The “Relative to UNC0638 UNC Light” value (G9a and GLP; [2]) was 0.47 log base 2 and the “Relative to UNC0638 Average” value (G9a and GLP; all values in log base 2) was −0.15 log base 2.
